{
  "source": "patent US20170362322A1",
  "about": "(published 2017)",
  "key": {"B7-H3 [1]": {"molecular_target": "T1, B7-H3 (human)", "T1 chain": "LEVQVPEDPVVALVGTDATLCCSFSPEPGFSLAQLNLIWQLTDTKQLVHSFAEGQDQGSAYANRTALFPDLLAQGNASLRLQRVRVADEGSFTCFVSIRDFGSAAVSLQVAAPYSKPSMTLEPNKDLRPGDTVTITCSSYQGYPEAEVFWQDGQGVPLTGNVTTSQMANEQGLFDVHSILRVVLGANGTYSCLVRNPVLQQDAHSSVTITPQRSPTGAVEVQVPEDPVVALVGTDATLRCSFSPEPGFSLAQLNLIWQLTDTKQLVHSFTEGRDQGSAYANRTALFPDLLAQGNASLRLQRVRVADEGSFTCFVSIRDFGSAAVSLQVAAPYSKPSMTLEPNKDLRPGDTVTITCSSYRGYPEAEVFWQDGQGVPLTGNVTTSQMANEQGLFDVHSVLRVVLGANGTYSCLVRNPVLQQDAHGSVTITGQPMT", "test": "competition ELISA (phage)"}, "B7-H3 [2]": {"molecular_target": "T1, B7-H3", "test": "Octet BLI; conc. 12.5 nM"}, "B7-H3 [3]": {"molecular_target": "T1, B7-H3", "test": "Octet BLI; conc. 25 nM"}, "B7-H3 [4]": {"molecular_target": "T1, B7-H3", "test": "Octet BLI; conc. 3.13 nM"}, "B7-H3 [5]": {"molecular_target": "T1, B7-H3", "test": "Octet BLI; conc. 6.25 nM"}, "B7-H3 [6]": {"molecular_target": "T1, B7-H3", "test": "Octet BLI; conc. 50 nM"}, "B7-H3 [7]": {"molecular_target": "T1, B7-H3", "test": "Octet BLI; conc. 100 nM"}, "B7-H3 [8]": {"molecular_target": "T1, B7-H3", "test": "Octet BLI; conc. 1.56 nM"}, "B7-H3 [9]": {"molecular_target": "T1, B7-H3", "test": "competition ELISA (phage)"}},
  "note": "Read-outs that look alike come from different tables or passages of the source.",
  "data": [
    {"binder": "2-8 (antibody, V domains shown) VH: QVQLQQSGAEVKKPGASVKVSCKASGYTFTNYDINWVRQAPGQGLEWIGWIFPGDGSTQYNEKFKGRATLTTDTSTSTAYMELSSLRSEDTAVYFCARQTTGTWFAYWGQGTLVTVSS VL: DIVLTQSPATLSLSPGERATLSCRASQSISEYLHWYQQKPGQAPRLLIKHASQSISGIPARFSGSGSGSDFTLTISSLEPEDFAVYYCQNGHSFPLTFGGGTKVEIKR", "values": [
      {"measurement": "IC50", "setting": "B7-H3 [1]", "result": 11.4, "unit": "nM"}
    ]},
    {"binder": "8 (2-8Ig) (antibody, V domains shown) VH: QVQLQQSGAEVKKPGASVKVSCKASGYTFTNYDINWVRQAPGQGLEWIGWIFPGDGSTQYNEKFKGRATLTTDTSTSTAYMELSSLRSEDTAVYFCARQTTGTWFAYWGQGTLVTVSS VL: DIVLTQSPATLSLSPGERATLSCRASQSISEYLHWYQQKPGQAPRLLIKHASQSISGIPARFSGSGSGSDFTLTISSLEPEDFAVYYCQNGHSFPLTFGGGTKVEIKR", "values": [
      {"measurement": "Kd", "setting": "B7-H3 [2]", "result": 0.0234, "unit": "nM"},
      {"measurement": "Kd", "setting": "B7-H3 [3]", "result": 0.0309, "unit": "nM"},
      {"measurement": "Kd", "setting": "B7-H3 [4]", "result": 0.0218, "unit": "nM"},
      {"measurement": "Kd", "setting": "B7-H3 [5]", "result": 0.0179, "unit": "nM"},
      {"measurement": "Kd", "setting": "B7-H3 [6]", "result": 0.0401, "unit": "nM"},
      {"measurement": "Kd", "setting": "B7-H3 [7]", "result": 0.0884, "unit": "nM"},
      {"measurement": "Kd", "setting": "B7-H3 [8]", "result": 0.0135, "unit": "nM"}
    ]},
    {"binder": "1-7 (antibody, V domains shown) VH: QVQLQQSGAEVKKPGASVKVSCKASGYTYTNYDINWVRQAPGQGLEWIGWIFPGDGSTQYNEKFKGRATLTTDTSTSTAYMELSSLRSEDTAVYFCARQTTGTWFAYWGQGTLVTVSS VL: DIVLTQSPATLSLSPGERATLSCRASQSISPYLHWYQQKPGQAPRLLIKHASQSISGIPARFSGSGSGSDFTLTISSLEPEDFAVYYCQNGHSFPLTFGGGTKVEIKR", "values": [
      {"measurement": "IC50", "setting": "B7-H3 [9]", "result": 5.6, "unit": "nM"}
    ]},
    {"binder": "1-4 (antibody, V domains shown) VH: QVQLQQSGAEVKKPGASVKVSCKASGYTFTNYDINWVRQAPGQGLEWIGWIFPGDGSTQYNPKFKGRATLTTDTSTSTAYMELSSLRSEDTAVYFCARQTTGTWFAYWGQGTLVTVSS VL: DIVLTQSPATLSLSPGERATLSCRASQSISTYLHWYQQKPGQAPRLLIKEASQSISGIPARFSGSGSGSDFTLTISSLEPEDFAVYYCQNGHSFPLTFGGGTKVEIKR", "values": [
      {"measurement": "IC50", "setting": "B7-H3 [9]", "result": 5.6, "unit": "nM"}
    ]},
    {"binder": "1-5 (antibody, V domains shown) VH: QVQLQQSGAEVKKPGASVKVSCKASGYTFTNYDINWVRQAPGQGLEWIGWIFPGDGSTQYNEKFKGRATLTTDTSTSTAYMELSSLRSEDTAVYFCARQTTGTWFAYWGQGTLVTVSS VL: DIVLTQSPATLSLSPGERATLSCRASQSISHYLHWYQQKPGQAPRLLIKYASQSLSGIPARFSGSGSGSDFTLTISSLEPEDFAVYYCQNGHSFPLTFGGGTKVEIKR", "values": [
      {"measurement": "IC50", "setting": "B7-H3 [9]", "result": 5.1, "unit": "nM"}
    ]},
    {"binder": "1-2 (antibody, V domains shown) VH: QVQLQQSGAEVKKPGASVKVSCKASGYTFTNYDINWVRQAPGQGLEWIGWIFPGDGSTQYNETFKGRATLTTDTSTSTAYMELSSLRSEDTAVYFCARQTTGTWFAYWGQGTLVTVSS VL: DIVLTQSPATLSLSPGERATLSCRASQSISKYLHWYQQKPGQAPRLLIKYANQSIRGIPARFSGSGSGSDFTLTISSLEPEDFAVYYCQNGHSFPLTFGGGTKVEIKR", "values": [
      {"measurement": "IC50", "setting": "B7-H3 [9]", "result": 10, "unit": "nM"}
    ]},
    {"binder": "1-1 (antibody, V domains shown) VH: QVQLQQSGAEVKKPGASVKVSCKASGYTFTNYDINWVRQAPGQGLEWIGWIFPGDGSTQYNGKFKGRATLTTDTSTSTAYMELSSLRSEDTAVYFCARQTTGTWFAYWGQGTLVTVSS VL: DIVLTQSPATLSLSPGERATLSCRASQSISPYLHWYQQKPGQAPRLLIKYASQSWSGIPARFSGSGSGSDFTLTISSLEPEDFAVYYCQNGHSFPLTFGGGTKVEIKR", "values": [
      {"measurement": "IC50", "setting": "B7-H3 [9]", "result": 8.8, "unit": "nM"}
    ]},
    {"binder": "2-5 (antibody, V domains shown) VH: QVQLQQSGAEVKKPGASVKVSCKASGYTFTNYDINWVRQAPGQGLEWIGWIFPGDGSTQYNEKFKGRATLTTDTSTSTAYMELSSLRSEDTAVYFCARQTTSTWFAYWGQGTLVTVSS VL: DIVLTQSPATLSLSPGERATLSCRASQIISDYLHWYQQKPGQAPRLLIKYASQLISGIPARFSGSGSGSDFTLTISSLEPEDFAVYYCQNGHSFPLTFGGGTKVEIKR", "values": [
      {"measurement": "IC50", "setting": "B7-H3 [1]", "result": 85, "unit": "nM"}
    ]}
  ]
}
